Experimental data published in patent US20050032689A1, “Methods for treatment or diagnosis of disease or disorders associated with an APB domain” (New York University, priority 1994, published 2005).

Test system: EGF receptor mutants (Y5F, CD196)
Assay: Binding of GST-Shc 1-209 to EGF receptor autophosphorylation mutants from NIH 3T3 lysates
Settings: all tyrosine-phosphorylated residues mutated to phenylalanine or carboxyl terminus deleted
Procedure: FIG. 3. Association of GST-Shc 1-209 with mutant forms of the EGF receptor. NIH 3T3 cells overexpressing various EGF receptor mutants were stimulated with EGF (200 ng/ml) for 3 min and then lysed. Wild type EGF receptor (W.T.) contains all five known EGF receptor autophosphorylation sites, Y2F has Tyr-992 and Tyr-1068 mutated to phenylalanine, Y5F has all five known EGF receptor autophosphorylation sites mutated to phenylalanine, and CD196 has a carboxyterminal deletion of 196 amino acids deleting all known autophosphorylation sites (Li, N., et al. (1994) Oncogene (In Press). Beads containing GST-Shc 1-209 fusion protein (3 μg) were added to the various lysates containing equal amounts of the receptor (left panels) or the lysates were immunoprecipitated with the anti-EGF receptor (EGFR) antibody (mAb108) (right panels). All samples were incubated at 4° C. for 90 min. The bound proteins were then washed, subjected to SDS-PAGE and transferred to nitrocellulose. […]
Binding Studies—GST fusion proteins were expressed using standard techniques (Ausubel, F. M., et al. Current Protocols in Molecular Biology, (1992) Wiley Interscience, New York). Protein concentration was determined by SDS-PAGE (polyacrylamide gel electrophoresis) using bovine serum albumin as a standard. […]

binding to EGF receptor mutants lacking autophosphorylation sites: completely eliminated Shc 1-209 binding
B1: Shc 1-209: Shc amino terminus, first 209 amino acids of murine p52Shc, generated as a GST fusion protein (protein, UniProt P98083 1-209, looked up, fragment)
chain: MDLLPPKPKYNPLRNESLSSLEEGASGSTPPEELPSPSASSLGPILPPLPGDDSPTTLCSFFPRMSNLKLANPAGGRLGPKGEPGKAAEDGEGSAGAALRDSGLLPLLQDMNKLSGGGGRRTRVEGGQLGGEEWTRHGSFVNKPTRGWLHPNDKVMGPGVSYLVRYMGCVEVLQSMRALDFNTRTQVTREAISLVCEAVPGAKGATRRR
modifications: GST fusion
notes: Shc amino terminus, first 209 amino acids of murine p52Shc, generated as a GST fusion protein
